Assay results reported in paper PMC3870252, “The N-Terminal Membrane-Spanning Domain of the Escherichia coli DNA Translocase FtsK Hexamerizes at Midcell” (mBio, 2013).
Values joined by “and” are separate entries in the source; they are usually repeats but may differ in a detail not shown here. Equal values may be shown once.

Tests used:
[1] = target: TtFtsKN (purified N-terminal domain of FtsK from Thermoanaerobacter tengcongensis) (Thermoanaerobacter tengcongensis); assay: SEC-MALS; Superdex S-200 column, in DDM detergent; masses after subtraction of the micelle contribution; hexamer and monomer peaks
[2] = target: TtFtsKN (purified N-terminal domain of FtsK from Thermoanaerobacter tengcongensis) (Thermoanaerobacter tengcongensis); assay: oligomer bands on SDS-PAGE of SEC fractions; fractions of the Superdex S-200 second purification step at a lower DDM detergent concentration, 12% Coomassie blue-stained SDS-PAGE
[3] = target: EcFtsKN (purified N-terminal domain of FtsK from E. coli) (E. coli); assay: as above
[4] = target: the molecule itself; assay: quantitative live-cell fluorescence stoichiometry (widefield microscopy); live E. coli in minimal glycerol medium; integrated midcell fluorescence divided by the intensity of a single YPet fluorophore; periodicity from the power spectrum of measured stoichiometries

TtFtsKN (purified N-terminal domain of FtsK from Thermoanaerobacter tengcongensis) (domain or fragment), sequence (Q8R5S4 371-568): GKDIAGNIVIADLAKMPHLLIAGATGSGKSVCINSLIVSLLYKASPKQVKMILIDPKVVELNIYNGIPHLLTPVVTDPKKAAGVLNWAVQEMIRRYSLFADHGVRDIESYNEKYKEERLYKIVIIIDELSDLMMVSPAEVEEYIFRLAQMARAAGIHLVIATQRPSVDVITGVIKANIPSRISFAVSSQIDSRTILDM

Molecule	stoichiometry N [4]	also measured
TtFtsKN (purified N-terminal domain of FtsK from Thermoanaerobacter tengcongensis) (domain or fragment)		stoichiometry N [1]: 6; stoichiometry N [2]: 2 and 6
EcFtsKN (purified N-terminal domain of FtsK from E. coli) (domain or fragment)		stoichiometry N [3]: 2 and 6
FtsKΔC-YPet (FtsK derivative lacking the C-terminal domain, amino acids 1 to 818) (domain or fragment, E. coli, UniProt P46889 1-818, looked up, FtsK, Escherichia coli, amino acids 1 to 818 (lacks the C-terminal translocase domain); source: expressed from the endogenous chromosomal locus, E. coli K-12 AB1157 derivative, in live cells; not shown: YPet, C-terminal, kept) MSQEYIEDKEVTLTKLSSGRRLLEALLILIVLFAVWLMAALLSFNPSDPSWSQTAWHEPIHNLGGMPGAWLADTLFFIFGVMAYTIPVIIVGGCWFAWRHQSSDEYIDYFAVSLRIIGVLALILTSCGLAAINADDIWYFASGGVIGSLLSTTLQPLLHSSGGTIALLCVWAAGLTLFTGWSWVTIAEKLGGWILNILTFASNRTRRDDTWVDEDEYEDDEEYEDENHGKQHESRRARILRGALARRKRLAEKFINPMGRQTDAALFSGKRMDDDEEITYTARGVAADPDDVLFSGNRATQPEYDEYDPLLNGAPITEPVAVAAAATTATQSWAAPVEPVTQTPPVASVDVPPAQPTVAWQPVPGPQTGEPVIAPAPEGYPQQSQYAQPAVQYNEPLQQPVQPQQPYYAPAAEQPAQQPYYAPAPEQPVAGNAWQAEEQQSTFAPQSTYQTEQTYQQPAAQEPLYQQPQPVEQQPVVEPEPVVEETKPARPPLYYFEEVEEKRAREREQLAAWYQPIPEPVKEPEPIKSSLKAPSVAAVPPVEAAAAVSPLASGVKKATLATGAAATVAAPVFSLANSGGPRPQVKEGIGPQLPRPKRIRVPTRRELASYGIKLPSQRAAEEKAREAQRNQYDSGDQYNDDEIDAMQQDELARQFAQTQQQRYGEQYQHDVPVNAEDADAAAEAELARQFAQTQQQRYSGEQPAGANPFSLDDFEFSPMKALLDDGPHEPLFTPIVEPVQQPQQPVAPQQQYQQPQQPVPPQPQYQQPQQPVAPQPQYQQPQQPVAPQQQYQQPQQPVAPQQQYQQPQQPVAPQPQDT	6.05	
FtsK-YPet (wild-type E. coli FtsK with a C-terminal YPet fusion) (natural protein, UniProt P46889 1-1329, looked up, FtsK, DNA translocase, Escherichia coli; wild-type protein, 1,329 amino acids, integral membrane protein; also called wild-type FtsK; source: expressed from the endogenous wild-type chromosomal locus, E. coli K-12 AB1157 derivative, in live cells; not shown: YPet, C-terminal, kept) MSQEYIEDKEVTLTKLSSGRRLLEALLILIVLFAVWLMAALLSFNPSDPSWSQTAWHEPIHNLGGMPGAWLADTLFFIFGVMAYTIPVIIVGGCWFAWRHQSSDEYIDYFAVSLRIIGVLALILTSCGLAAINADDIWYFASGGVIGSLLSTTLQPLLHSSGGTIALLCVWAAGLTLFTGWSWVTIAEKLGGWILNILTFASNRTRRDDTWVDEDEYEDDEEYEDENHGKQHESRRARILRGALARRKRLAEKFINPMGRQTDAALFSGKRMDDDEEITYTARGVAADPDDVLFSGNRATQPEYDEYDPLLNGAPITEPVAVAAAATTATQSWAAPVEPVTQTPPVASVDVPPAQPTVAWQPVPGPQTGEPVIAPAPEGYPQQSQYAQPAVQYNEPLQQPVQPQQPYYAPAAEQPAQQPYYAPAPEQPVAGNAWQAEEQQSTFAPQSTYQTEQTYQQPAAQEPLYQQPQPVEQQPVVEPEPVVEETKPARPPLYYFEEVEEKRAREREQLAAWYQPIPEPVKEPEPIKSSLKAPSVAAVPPVEAAAAVSPLASGVKKATLATGAAATVAAPVFSLANSGGPRPQVKEGIGPQLPRPKRIRVPTRRELASYGIKLPSQRAAEEKAREAQRNQYDSGDQYNDDEIDAMQQDELARQFAQTQQQRYGEQYQHDVPVNAEDADAAAEAELARQFAQTQQQRYSGEQPAGANPFSLDDFEFSPMKALLDDGPHEPLFTPIVEPVQQPQQPVAPQQQYQQPQQPVPPQPQYQQPQQPVAPQPQYQQPQQPVAPQQQYQQPQQPVAPQQQYQQPQQPVAPQPQDTLLHPLLMRNGDSRPLHKPTTPLPSLDLLTPPPSEVEPVDTFALEQMARLVEARLADFRIKADVVNYSPGPVITRFELNLAPGVKAARISNLSRDLARSLSTVAVRVVEVIPGKPYVGLELPNKKRQTVYLREVLDNAKFRDNPSPLTVVLGKDIAGEPVVADLAKMPHLLVAGTTGSGKSVGVNAMILSMLYKAQPEDVRFIMIDPKMLELSVYEGIPHLLTEVVTDMKDAANALRWCVNEMERRYKLMSALGVRNLAGYNEKIAEADRMMRPIPDPYWKPGDSMDAQHPVLKKEPYIVVLVDEFADLMMTVGKKVEELIARLAQKARAAGIHLVLATQRPSVDVITGLIKANIPTRIAFTVSSKIDSRTILDQAGAESLLGMGDMLYSGPNSTLPVRVHGAFVRDQEVHAVVQDWKARGRPQYVDGITSDSESEGGAGGFDGAEELDPLFDQAVQFVTEKRKASISGVQRQFRIGYNRAARIIEQMEAQGIVSEQGHNGNREVLAPPPFD	6.12	
FtsKN-YPet (N-terminal domain of E. coli FtsK, amino acids 1 to 210) (domain or fragment, UniProt P46889 1-210, looked up, FtsK, Escherichia coli, N-terminal membrane-spanning domain, amino acids 1 to 210; source: expressed from the endogenous chromosomal locus, E. coli K-12 AB1157 derivative, in live cells; not shown: YPet, C-terminal, kept) MSQEYIEDKEVTLTKLSSGRRLLEALLILIVLFAVWLMAALLSFNPSDPSWSQTAWHEPIHNLGGMPGAWLADTLFFIFGVMAYTIPVIIVGGCWFAWRHQSSDEYIDYFAVSLRIIGVLALILTSCGLAAINADDIWYFASGGVIGSLLSTTLQPLLHSSGGTIALLCVWAAGLTLFTGWSWVTIAEKLGGWILNILTFASNRTRRDDT	6	
